Test results reported in PMC6849236.

What was measured:
[1] = molecular target: CBM3-CtCoh-CcsCoh-RfCoh synthetic mini-scaffoldin (C. thermocellum ATCC 27405 | C. cellulovorans ATCC 35296 | R. flavefaciens)
[2] = molecular target: CBM3-CtCoh-CcsCoh-RfCoh synthetic mini-scaffoldin (C. thermocellum ATCC 27405 | C. cellulovorans ATCC 35296 | R. flavefaciens); experiment: pull-down; RAC pull-down: cell lysate supernatants of dockerin-containing enzymes (in slight excess) mixed with 0.5 mL cell lysate supernatant of CBM3-Scaf3, 2 mg RAC added, room temperature 5 min; RAC pellet washed three times in 100 mM HEPES pH 7.5, 50 mM NaCl, 1 mM CaCl2; 12% SDS-PAGE, band intensities

CDP-CtDoc, sequence (A3DH67 whole entry): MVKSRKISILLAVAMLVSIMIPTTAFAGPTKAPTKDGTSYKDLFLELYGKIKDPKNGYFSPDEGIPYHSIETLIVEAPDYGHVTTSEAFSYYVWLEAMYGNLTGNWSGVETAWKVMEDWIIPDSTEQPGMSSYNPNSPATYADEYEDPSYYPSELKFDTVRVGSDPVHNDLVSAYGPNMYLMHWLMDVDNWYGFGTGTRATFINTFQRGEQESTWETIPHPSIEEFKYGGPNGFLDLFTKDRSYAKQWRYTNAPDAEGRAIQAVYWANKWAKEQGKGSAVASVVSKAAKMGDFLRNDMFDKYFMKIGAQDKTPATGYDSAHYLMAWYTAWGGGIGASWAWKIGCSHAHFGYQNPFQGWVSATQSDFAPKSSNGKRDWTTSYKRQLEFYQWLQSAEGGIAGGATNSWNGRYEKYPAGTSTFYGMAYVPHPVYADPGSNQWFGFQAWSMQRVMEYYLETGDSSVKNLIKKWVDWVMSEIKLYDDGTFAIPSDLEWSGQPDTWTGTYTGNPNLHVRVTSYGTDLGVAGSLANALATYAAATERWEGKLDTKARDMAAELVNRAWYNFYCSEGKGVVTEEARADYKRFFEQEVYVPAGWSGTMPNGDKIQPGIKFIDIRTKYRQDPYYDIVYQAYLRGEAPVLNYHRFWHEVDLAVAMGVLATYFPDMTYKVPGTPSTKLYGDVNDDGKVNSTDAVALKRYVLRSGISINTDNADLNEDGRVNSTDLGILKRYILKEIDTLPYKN

CDP-CtDoc (from UniProt A3DH67 673-741) (enzyme)
specific activity of RAC immobilized CBM3-Scaf3/CDP-CtDoc; 0.5 mL cell lysate supernatant of CBM3-Scaf3 mixed with different volumes of CDP-CtDoc supernatant, highest at 1 mL, no increase with excess [1]: 0.72 U mL^−1
stoichiometry N [2]: 1

CDP-RfDoc (from UniProt Q9AE53 787-879) (enzyme)
specific activity of RAC immobilized CBM3-Scaf3/CDP-RfDoc; 0.5 mL cell lysate supernatant of CBM3-Scaf3 mixed with CDP-RfDoc supernatant, highest at 2 mL [1]: 0.71 U mL^−1
stoichiometry N [2]: 1

PGM-CcsDoc (enzyme)
specific activity of RAC immobilized CBM3-Scaf3/PGM-CcsDoc; 0.5 mL cell lysate supernatant of CBM3-Scaf3 mixed with PGM-CcsDoc supernatant, highest at 2 mL [1]: 23 U mL^−1
stoichiometry N [2]: 1

PGM-RfDoc (from UniProt Q9AE53 787-879) (enzyme)
specific activity of RAC immobilized CBM3-Scaf3/PGM-RfDoc; 0.5 mL cell lysate supernatant of CBM3-Scaf3 mixed with PGM-RfDoc supernatant, highest at 2 mL [1]: 22.4 U mL^−1
stoichiometry N [2]: 1
